Experimental data as given in patent US8969060B2, “Modified glucose dehydrogenase” (Ikeda Food Research Co., Ltd., priority 2011, dated 2015).

Assays:
Type in all cases: biochemical
[1] = Susceptibility to proflavin at a high concentration; settings: final conc. 2 mM
Experimental: 1.0 mL of 0.1 M potassium phosphate buffer (pH 7.0), 1.0 mL of 1.0 M D-glucose, 0.14 mL of 3 mM 2,6-dichlorophenol indophenol (hereinafter referred to as DCIP), 0.2 mL of 3 mM 1-methoxy-5-methylphenazinium methylsulfate (hereinafter referred to as 1-m-PMS), 0.06 mL of methanol and 0.55 mL of distilled water are added to a 3-mL quartz cell (light path length: 1 cm), and the cell is placed in a spectrophotometer provided with a thermostat cell holder and incubated at 37° C. for 10 minutes. Thereafter, 0.05 mL of an enzyme solution is added to the cell, and then, a change in the absorbance of DCIP at 600 nm (ΔABS/min) is determined. […] Therefore, the enzymatic activity is determined from the change in the absorbance according to Equation I. In Example 8, methanol was replaced with the same amount of distilled water.
The enzymatic activity is determined in the following manner in Examples 3 and 6 wherein a plate reader (Japan Molecular Device Corporation, SpectraMax Plus384) is used. […] A reagent for the determination of the enzymatic activity comprising phosphate buffer (pH 7.0), 1.0 M D-glucose, 3 mM DCIP, 3 mM 1-m-PMS and methanol with a volume ratio of 0.1:1:0.14:0.2:0.06 is added to the 96-well microplate with an amount of 100 μl per well, and a change in the absorbance of DCIP at 600 nm (ΔABS/min) is then determined. […]

[2] = Susceptibility of purified enzyme to proflavin hydrochloride (spectrophotometer); settings: inhibitor 1 mM
Experimental: (§1) 1.0 mL of 0.1 M potassium phosphate buffer (pH 7.0), 1.0 mL of 1.0 M D-glucose, 0.14 mL of 3 mM 2,6-dichlorophenol indophenol (hereinafter referred to as DCIP), 0.2 mL of 3 mM 1-methoxy-5-methylphenazinium methylsulfate (hereinafter referred to as 1-m-PMS), 0.06 mL of methanol and 0.55 mL of distilled water are added to a 3-mL quartz cell (light path length: 1 cm), and the cell is placed in a spectrophotometer provided with a thermostat cell holder and incubated at 37° C. for 10 minutes. Thereafter, 0.05 mL of an enzyme solution is added to the cell, and then, a change in the absorbance of DCIP at 600 nm (ΔABS/min) is determined. The molar extinction coefficient of DCIP at pH 7.0 is taken as 16.3×10^3 cm^−1 M^−1, and enzymatic activity to reduce 1 μmol of DCIP per minute is substantially equivalent to 1 unit of the enzymatic activity. Therefore, the enzymatic activity is determined from the change in the absorbance according to Equation I. In Example 8, methanol was replaced with the same amount of distilled water.
(§2) In the following examples, a value of the enzymatic activity determined by the spectrometer or plate reader using the above reagent composition is considered as a blank value. On the other hand, a sample value is determined using a methanol solution comprising the inhibitor such as 1,10-phenanthroline or proflavin hydrochloride at a final concentration of 1 mM instead of the methanol. Enzymatic activity (unit/mL)=(−ΔABS/16.3)×3.0/0.05×(Dilution ratio of enzyme) [Equation 1]
(§3) The mutants having the mutation of H341W and F432L, respectively, were inoculated into a shake flask containing 150 mL the YPD medium. After shaking culture at 30° C. and 120 rpm for 48 hours, the culture mixture was centrifuged at 3,000×g for 5 min. and the supernatant was filtered through a membrane filter with 10 μm. […]
(§4) After diluting the purified enzyme to an appropriate concentration, the sample value and blank value were determined in accordance with the method for determination of the enzymatic activity using the spectrophotometer.

[3] = Susceptibility to 1,10-phenanthroline at a high concentration
Experimental: as §1
The enzymatic activity is determined in the following manner in Examples 3 and 6 wherein a plate reader (Japan Molecular Device Corporation, SpectraMax Plus384) is used. Thus, culture supernatant that had been diluted in advance with an appropriate magnification is added to a 96-well microplate with an amount of 100 μl per well. A reagent for the determination of the enzymatic activity comprising phosphate buffer (pH 7.0), 1.0 M D-glucose, 3 mM DCIP, 3 mM 1-m-PMS and methanol with a volume ratio of 0.1:1:0.14:0.2:0.06 is added to the 96-well microplate with an amount of 100 μl per well, and a change in the absorbance of DCIP at 600 nm (ΔABS/min) is then determined. The enzymatic activity can be calculated by conversion in proportion to a change in the absorbance of an enzyme solution for which the enzymatic activity has already been known by the above-mentioned activity determination procedure using the spectrophotometer.
as §2
The relative activity was determined in the same manner as in Examples 3 and 6 in the co-existence of the inhibitors at a high concentration.

[4] = Relative enzymatic activity of GLD (DCIP/1-m-PMS, plate reader, yeast culture supernatant) with 1,10-phenanthroline present; settings: for Relative Activity [%] 1,10-Phenanthroline: site-specific mutants, inhibitor final concentration 1 mM
Summary of the method: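 Yeast transformants grown in YPD, 30° C., 24 h; diluted culture supernatant assayed in phosphate buffer pH 7.0 with D-glucose, DCIP and 1-m-PMS, DCIP absorbance change at 600 nm. Relative activity (%) = activity with 1 mM 1,10-phenanthroline (final, replacing methanol) divided by activity without it.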

[5] = Susceptibility of purified enzyme to 1,10-phenanthroline (spectrophotometer); settings: inhibitor 1 mM
Experimental: as §1, §2, §3, §4

[6] = Relative enzymatic activity of GLD (DCIP/1-m-PMS, plate reader, yeast culture supernatant) with proflavin hydrochloride present; settings: site-specific mutants, inhibitor final concentration 1 mM
Summary of the method: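 Culture supernatant diluted and mixed with reagent of phosphate buffer pH 7.0, 1.0 M D-glucose, 3 mM DCIP, 3 mM 1-m-PMS and methanol (0.1:1:0.14:0.2:0.06). DCIP absorbance decrease at 600 nm followed; proflavin hydrochloride in methanol replaced methanol at 1 mM final. Activity expressed as % of inhibitor-free blank.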

B1: F432L: modified GLD: SEQ ID NO: 1 with substitution F432L (protein, listed as Aspergillus terreus)
chain: MLGKLSFLSALSLAVAAPLSNSTSAKYDYIVIGGGTSGLAVANRLSEDPNVNVLILEAGGSVWNNPNVTNVDGYGLAFGSDIDWQYQSVNQPYGGNLSQVLRAGKALGGTSTINGMAYTRAEDVQIDAWETIGNTGWTWKNLFPYYRKSENFTVPTKSQTSLGASYEAGAHGHEGPLDVAFTQIESNNLTTYLNRTFQGMGLPWTEDVNGGKMRGFNLYPSTVNLEEYVREDAARAYYWPYKSRPNLHVLLNTFANRIVWDGEAHDGHITASGVEITSRNGTVRVINAEKEVIVSAGALKSPAILELSGIGNPSVLDKHNIPVKVNLPTVGENLQDQVNSHMDASGNTSISGTKAVSYPDVYDVFGDEAESVAKQIRANLKQYAADTAKANGNIMKAADLERLFEVQYDLIFKGRVPIAEVLNYPGSATSVLAEFWALLPFARGSVHIGSSNPAEFPVINPNYFMLDWDAKSYVAVAKYIRRSFESYPLSSIVKESTPGYDVIPRNASEQSWKEWVFDKNYRSNFHPVGTAAMMPREIGGVVDERLNVYGTTNVRVVDASVLPFQVCGHLVSTLYAVAERAADLIKADAGRR
modifications: SIGNAL (1)..(19)
[1]
  Relative Activity[%]: 91.6%
[2]
  Relative Activity [%] Proflavin hydrochloride: 88.1%
[3]; final conc. 1 mM
  Relative Activity[%]: 97.0%
[3]; final conc. 5 mM
  Relative Activity[%]: 64.2%
[3]; final conc. 10 mM
  Relative Activity[%]: 47.2%
[3]; final conc. 20 mM
  Relative Activity[%]: 32.1%
[4]; random-mutation mutants, sample value with inhibitor at 1 mM / blank value, inhibitor not named in Table 1
  Relative Activity: 80.4%
[4]
  Relative Activity [%] 1,10-Phenanthroline: 91.7%
[5]
  Relative Activity [%] 1,10-Phenanthroline: 90.8%
[6]
  Relative Activity [%] Proflavin hydrochloride: 68.1%

B2: H341W: modified GLD: SEQ ID NO: 1 with substitution H341W (protein, listed as Aspergillus terreus)
chain: MLGKLSFLSALSLAVAAPLSNSTSAKYDYIVIGGGTSGLAVANRLSEDPNVNVLILEAGGSVWNNPNVTNVDGYGLAFGSDIDWQYQSVNQPYGGNLSQVLRAGKALGGTSTINGMAYTRAEDVQIDAWETIGNTGWTWKNLFPYYRKSENFTVPTKSQTSLGASYEAGAHGHEGPLDVAFTQIESNNLTTYLNRTFQGMGLPWTEDVNGGKMRGFNLYPSTVNLEEYVREDAARAYYWPYKSRPNLHVLLNTFANRIVWDGEAHDGHITASGVEITSRNGTVRVINAEKEVIVSAGALKSPAILELSGIGNPSVLDKHNIPVKVNLPTVGENLQDQVNSWMDASGNTSISGTKAVSYPDVYDVFGDEAESVAKQIRANLKQYAADTAKANGNIMKAADLERLFEVQYDLIFKGRVPIAEVLNYPGSATSVFAEFWALLPFARGSVHIGSSNPAEFPVINPNYFMLDWDAKSYVAVAKYIRRSFESYPLSSIVKESTPGYDVIPRNASEQSWKEWVFDKNYRSNFHPVGTAAMMPREIGGVVDERLNVYGTTNVRVVDASVLPFQVCGHLVSTLYAVAERAADLIKADAGRR
modifications: SIGNAL (1)..(19)
[1]
  Relative Activity[%]: 138.2%
[2]
  Relative Activity [%] Proflavin hydrochloride: 144.3%
[3]; final conc. 1 mM
  Relative Activity[%]: 99.4%
[3]; final conc. 5 mM
  Relative Activity[%]: 78.1%
[3]; final conc. 10 mM
  Relative Activity[%]: 63.2%
[3]; final conc. 20 mM
  Relative Activity[%]: 45.8%
[4]
  Relative Activity [%] 1,10-Phenanthroline: 100.3%
[5]
  Relative Activity [%] 1,10-Phenanthroline: 89.5%
[6]
  Relative Activity [%] Proflavin hydrochloride: 88.4%
